The RNAGym collection of RNA variant scans (doi:10.1073/pnas.2313332121)

B1: TPR t1 (parent)
chain: GACCAAUCUGCCCUCAGAGCUCGAGAACAUCUUCGGAUGCAGAGGAGGCAGGCUUCGGUGGCGCGAUAGCGCCAACGUCCUCAACCUCCAAUGCAUCCCACCACAUGAUGAUGCCUGAAGAGCCUUGGUUUUUUG

Variants of: B1
Test: polymerase ribozyme fitness, log enrichment relative to wild type (log ratio); higher = more active; in vitro selection for triplet polymerase activity
Outline: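 A heterodimeric triplet polymerase ribozyme had each of its subunits mutagenized by PCR into a library, which was transcribed. One round of in vitro selection, done in triplicate, annealed each library with a biotinylated primer, its partner subunit and triplets, then incubated it frozen at −7 °C before gel excision of extended constructs, streptavidin-bead capture and RT-PCR. Fitness is the logarithm of genotype enrichment relative to wild-type enrichment, based on Illumina sequencing of inputs and outputs and inverse-variance-weighted replicate averages. A base-2 logarithm is used, and genotypes were kept only with ≥10 input reads and ≥1 read per output.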

Point of comparison: C8G C13G U54C, “polymerase ribozyme fitness (log ratio)” value 0.758. Against it:
- A18U C56U C94U A111C C114U — lower, -5.39
- C11G C73U C80U — lower, -0.636
- U9G U54G G58C C73U — lower, -0.715
- A27U U54A A75U U78C G127C — lower, -6.04
- A37C C70A C72U G120U — lower, -1.56
- C11G A16U C28G A121C — lower, -0.982
- C56U G120C G127U — higher, 2.09
- U7G U33G — lower, -5.33
- G39U G45U C72A — lower, -2.22
- G69A C82U G120A G122U — lower, -2.26
- C15G C72U A100U — lower, -3.69
- G10U C20A C40U A46G C62U C82U C114A — lower, -3.36
- G10U A29G G52U C79G — lower, -2.85
- C102U U109A — lower, -6.07
- G58C C98G G120C C123U — lower, -6.14
- U7A U9C C15A A41U C56U U92G — lower, -1.45
- A50G G52C G71U C79A G110U — lower, -4.97
- C12G C40U C97U — lower, -1.01
- A18U A29G G42C G110U U112G — lower, -5.42
- G47C G48U C62U C85U A108U A111U G120C G122C — lower, -6.85
- U59C U78C G122A — lower, -0.562
- A29U C62U A74C U81C C124A — lower, -1.11
- C12A C49A C82A — lower, -1.3
- G44U A75U U92C — lower, -1.34
- A26U G47A — lower, -4.24
- C79U C98A — lower, -4.92
- A26U C62A A83U G117A — lower, -6.44
- C3A C4G G10A G61A C123G — within 0.2 log units, 0.689
- A5C U106A — lower, -0.572
- U109A U130A — lower, -5.09
- C15A C114U — lower, -4.61
- G52U C123A — lower, -0.303
- G57U U59A C124A — higher, 1.82
- C13U A41G A43C U87C G113A G122U — lower, -1.25
- U7A U33A A100G G120C G135A — lower, -3.75
- A27G A41U C64U — lower, -3.32
- G36C C70G G110C U129G — lower, -5.33
- A27U C86G — lower, -3.66
- G61A G120A C123U — higher, 1.5
- G17A C20G — lower, -4.82
- U78C U132C — lower, -0.13
- U9G C70U U81C G110U — lower, -3.84
- C40A A46G U55A C99U G120A — lower, -4.32
- G10U C98A C123A — lower, -4.36
- C31U G110A — lower, -4.35
- A6G A90G U112A — higher, 1.69
- A27U G52A C88U U96A — lower, -4.5
- G63U U112A G120A — lower, -1.02
- G71A C79U C98U — lower, -1.99
- U14G A50C C101A — lower, -3.99
- C12G C56U A100C G117U — lower, -3.6
- G42C A66U A83U — lower, -3.36
- A91G G113U — lower, -3.39
- A18C G120A — lower, -1.48
- C11G U78C — lower, 0.168
- C20G C53U — lower, -3.06
- C40A C72U U92A C115A — lower, -1.91
- C34U G63C — lower, -3.94
- G10A C73A — lower, -0.58
- G10C A27C U55C C70U — lower, -7.04
- C56U G57U G69U C114U C115A — lower, -4.53
- C22U A46C C70U — lower, -6.66
- C15A A37G G45U C72A G93U U112C G122C C123G U125A — lower, -3.59
- C40U U109A G120C — lower, -5.74
- C8U G39U A66G G113C — lower, -4.22
- C56U U96C — lower, 0.246
- C62A C101U C114U C124A — lower, -3.63
- G19A G71C C124A — lower, -2.56
- G10C G61U U109C — lower, -5.18
- G45U C56G G63C C101U — lower, -5.92
- G10A A29G A43U C70U C89A — lower, -4.19
- G52A C56U — lower, -0.699
- C102U G120C — lower, -1.05
- A16C G52A C70U C73U — lower, -3.8
- A26U C72A U78C A91C A118G A121U U126C — lower, -5.75
- G45U G47C C85A C88U — lower, -4.69
- U7G A46G C124A — higher, 1.74
- U21C G71U C86G G117A — lower, -5.6
- C11A A95G — lower, -1.37
- A18G A24G C34U G61A A111U G128U G135U — lower, -6.04
- C22G G23A G61U C89U C114U — lower, -3.99
- U30C U78A U96A — lower, -5.15
- A103C U109G U130C — lower, -5.77
